For one substance, EC50 of Gαs-GTPγS-mediated activation of adenylyl cyclase in striatal membranes, PhLP1-treated reaction (0.5 μM purified PhLP1) and EC50 of Gαs-GTPγS-mediated activation of adenylyl cyclase in striatal membranes, control reaction results are on record in PMC4728126, “Stable G protein-effector complexes in striatal neurons: mechanism of assembly and role in neurotransmitter signaling” (eLife, 2015).

In this experiment the target is adenylyl cyclase type 5 (mouse (endogenous in striatum)) (UniProt P84309).
Chain of adenylyl cyclase type 5 (mouse (endogenous in striatum)) (P84309 whole entry): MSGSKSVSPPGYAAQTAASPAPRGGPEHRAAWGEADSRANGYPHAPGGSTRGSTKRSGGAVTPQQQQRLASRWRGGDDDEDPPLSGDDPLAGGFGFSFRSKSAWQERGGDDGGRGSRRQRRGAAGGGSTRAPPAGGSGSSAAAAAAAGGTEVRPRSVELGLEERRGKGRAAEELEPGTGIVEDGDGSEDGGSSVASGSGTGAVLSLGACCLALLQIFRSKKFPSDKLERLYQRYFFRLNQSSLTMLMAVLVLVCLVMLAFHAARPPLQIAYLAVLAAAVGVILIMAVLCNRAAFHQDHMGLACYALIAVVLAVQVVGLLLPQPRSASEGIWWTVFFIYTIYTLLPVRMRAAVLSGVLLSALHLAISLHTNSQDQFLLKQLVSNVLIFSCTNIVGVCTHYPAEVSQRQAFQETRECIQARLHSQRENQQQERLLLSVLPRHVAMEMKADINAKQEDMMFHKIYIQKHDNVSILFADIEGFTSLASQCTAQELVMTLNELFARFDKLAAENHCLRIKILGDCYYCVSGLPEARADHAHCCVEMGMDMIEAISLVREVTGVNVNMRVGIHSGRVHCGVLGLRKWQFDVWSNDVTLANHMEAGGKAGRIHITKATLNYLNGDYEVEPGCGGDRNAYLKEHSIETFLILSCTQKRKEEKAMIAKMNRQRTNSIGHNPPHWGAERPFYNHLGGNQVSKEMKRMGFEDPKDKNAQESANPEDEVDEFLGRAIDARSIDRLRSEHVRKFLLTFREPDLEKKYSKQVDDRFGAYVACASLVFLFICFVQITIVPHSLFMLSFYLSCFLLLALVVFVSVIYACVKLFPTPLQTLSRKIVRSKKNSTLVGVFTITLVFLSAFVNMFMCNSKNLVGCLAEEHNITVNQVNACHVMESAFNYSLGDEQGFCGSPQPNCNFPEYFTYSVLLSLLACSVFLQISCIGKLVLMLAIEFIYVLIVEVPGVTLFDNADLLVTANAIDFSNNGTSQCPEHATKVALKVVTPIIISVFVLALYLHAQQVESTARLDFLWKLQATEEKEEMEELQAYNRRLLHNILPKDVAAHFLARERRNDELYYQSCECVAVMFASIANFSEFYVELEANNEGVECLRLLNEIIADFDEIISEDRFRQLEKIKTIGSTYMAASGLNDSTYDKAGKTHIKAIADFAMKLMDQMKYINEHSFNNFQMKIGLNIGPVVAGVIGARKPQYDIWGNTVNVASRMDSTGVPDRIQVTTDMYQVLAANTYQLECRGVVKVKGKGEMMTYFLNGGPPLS

Chain of Gαs-GTPγS (P63092 whole entry): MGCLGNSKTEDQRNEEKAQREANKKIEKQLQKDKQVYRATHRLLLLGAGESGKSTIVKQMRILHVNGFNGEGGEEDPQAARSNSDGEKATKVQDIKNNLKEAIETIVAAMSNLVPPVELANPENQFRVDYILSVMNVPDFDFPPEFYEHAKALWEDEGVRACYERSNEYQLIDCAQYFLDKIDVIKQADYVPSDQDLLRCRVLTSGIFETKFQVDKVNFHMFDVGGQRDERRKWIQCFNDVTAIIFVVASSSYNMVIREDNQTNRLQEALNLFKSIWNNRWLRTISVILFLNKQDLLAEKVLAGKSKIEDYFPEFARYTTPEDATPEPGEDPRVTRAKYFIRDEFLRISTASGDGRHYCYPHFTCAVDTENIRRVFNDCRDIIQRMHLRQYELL

Consider “Gαs-GTPγS (from UniProt P63092 1-394) (natural protein)”, for which the EC50 of Gαs-GTPγS-mediated activation of adenylyl cyclase in striatal membranes, PhLP1-treated reaction (0.5 μM purified PhLP1) worked out at 22.3 nM and the EC50 of Gαs-GTPγS-mediated activation of adenylyl cyclase in striatal membranes, control reaction worked out at 16.2 nM.
